Experimental data: IntAct's records for PubMed 21730963

B1: Serine/threonine-protein kinase SCH9 (Saccharomyces cerevisiae), P11792 (parent)
chain: MMNFFTSKSSNQDTGFSSQHQHPNGQNNGNNNSSTAGNDNGYPCKLVSSGPCASSNNGALFTNFTLQTATPTTAISQDLYAMGTTGITSENALFQMKSMNNGISSVNNNNSNTPTIITTSQEETNAGNVHGDTGGNSLQNSEDDNFSSSSTTKCLLSSTSSLSINQREAAAAAYGPDTDIPRGKLEVTIIEARDLVTRSKDSQPYVVCTFESSEFISNGPESLGAINNNNNNNNNNQHNQNQHINNNNENTNPDAASQHHNNNSGWNGSQLPSIKEHLKKKPLYTHRSSSQLDQLNSCSSVTDPSKRSSNSSSGSSNGPKNDSSHPIWHHKTTFDVLGSHSELDISVYDAAHDHMFLGQVRLYPMIHNLAHASQHQWHSLKPRVIDEVVSGDILIKWTYKQTKKRHYGPQDFEVLRLLGKGTFGQVYQVKKKDTQRIYAMKVLSKKVIVKKNEIAHTIGERNILVTTASKSSPFIVGLKFSFQTPTDLYLVTDYMSGGELFWHLQKEGRFSEDRAKFYIAELVLALEHLHDNDIVYRDLKPENILLDANGNIALCDFGLSKADLKDRTNTFCGTTEYLAPELLLDETGYTKMVDFWSLGVLIFEMCCGWSPFFAENNQKMYQKIAFGKVKFPRDVLSQEGRSFVKGLLNRNPKHRLGAIDDGRELRAHPFFADIDWEALKQKKIPPPFKPHLVSETDTSNFDPEFTTASTSYMNKHQPMMTATPLSPAMQAKFAGFTFVDESAIDEHVNNNRKFLQNSYFMEPGSFIPGNPNLPPDEDVIDDDGDEDINDGFNQEKNMNNSHSQMDFDGDQHMDDEFVSGRFEI
partner: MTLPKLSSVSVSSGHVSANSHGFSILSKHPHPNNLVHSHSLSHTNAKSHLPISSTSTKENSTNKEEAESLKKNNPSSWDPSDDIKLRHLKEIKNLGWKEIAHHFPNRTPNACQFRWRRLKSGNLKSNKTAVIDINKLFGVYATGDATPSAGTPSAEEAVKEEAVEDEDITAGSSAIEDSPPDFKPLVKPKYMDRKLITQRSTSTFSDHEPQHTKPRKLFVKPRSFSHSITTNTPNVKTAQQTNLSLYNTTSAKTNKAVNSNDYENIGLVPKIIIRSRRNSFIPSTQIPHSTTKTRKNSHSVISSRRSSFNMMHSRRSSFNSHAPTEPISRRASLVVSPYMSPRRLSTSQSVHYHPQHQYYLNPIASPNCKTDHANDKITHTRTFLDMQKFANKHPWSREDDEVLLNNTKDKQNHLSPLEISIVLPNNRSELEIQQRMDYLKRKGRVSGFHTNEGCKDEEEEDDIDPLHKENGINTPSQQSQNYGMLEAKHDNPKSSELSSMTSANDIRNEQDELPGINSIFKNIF
B2: Serine/threonine-protein kinase SCH9 (Saccharomyces cerevisiae), P11792 (parent)
chain: B1 chain
partner: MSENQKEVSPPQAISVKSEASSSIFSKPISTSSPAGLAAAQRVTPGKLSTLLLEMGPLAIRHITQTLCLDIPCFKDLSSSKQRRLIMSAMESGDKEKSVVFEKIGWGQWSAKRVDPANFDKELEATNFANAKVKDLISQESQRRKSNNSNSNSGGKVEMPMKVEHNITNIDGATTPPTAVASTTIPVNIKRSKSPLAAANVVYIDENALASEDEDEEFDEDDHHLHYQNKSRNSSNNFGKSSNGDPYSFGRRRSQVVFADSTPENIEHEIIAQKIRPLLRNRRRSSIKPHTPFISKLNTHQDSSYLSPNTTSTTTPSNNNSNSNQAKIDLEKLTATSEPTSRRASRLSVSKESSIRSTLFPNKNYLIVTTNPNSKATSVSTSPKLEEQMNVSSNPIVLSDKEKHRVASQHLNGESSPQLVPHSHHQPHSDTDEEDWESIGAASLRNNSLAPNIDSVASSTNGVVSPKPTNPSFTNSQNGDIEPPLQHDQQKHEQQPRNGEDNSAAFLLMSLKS
B3: Serine/threonine-protein kinase SCH9 (Saccharomyces cerevisiae), P11792 (parent)
chain: B1 chain
partner: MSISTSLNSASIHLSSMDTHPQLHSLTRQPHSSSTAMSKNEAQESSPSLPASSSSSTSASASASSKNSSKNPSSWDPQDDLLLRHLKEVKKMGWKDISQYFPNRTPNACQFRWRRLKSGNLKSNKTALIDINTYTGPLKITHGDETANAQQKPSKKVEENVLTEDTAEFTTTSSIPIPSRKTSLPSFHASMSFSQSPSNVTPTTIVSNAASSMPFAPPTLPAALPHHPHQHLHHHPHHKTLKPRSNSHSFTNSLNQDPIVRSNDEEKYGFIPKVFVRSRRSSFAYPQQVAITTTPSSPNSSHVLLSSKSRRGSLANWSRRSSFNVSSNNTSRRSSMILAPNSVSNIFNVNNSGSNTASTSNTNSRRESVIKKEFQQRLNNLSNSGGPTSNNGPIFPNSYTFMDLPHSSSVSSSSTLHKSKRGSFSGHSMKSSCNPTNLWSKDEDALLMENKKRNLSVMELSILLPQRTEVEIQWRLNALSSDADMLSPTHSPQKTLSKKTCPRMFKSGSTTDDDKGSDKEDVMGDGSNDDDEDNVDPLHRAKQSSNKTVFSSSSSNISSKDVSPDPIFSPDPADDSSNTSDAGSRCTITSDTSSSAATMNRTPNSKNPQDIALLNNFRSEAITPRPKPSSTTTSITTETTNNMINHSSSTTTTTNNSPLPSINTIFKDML
B4: Transcriptional regulatory protein TOD6 (Saccharomyces cerevisiae), P34219 (parent)
chain: B1 partner
partner: B1 chain
B5: Transcriptional regulatory protein DOT6 (Saccharomyces cerevisiae), P40059 (parent)
chain: B3 partner
partner: B1 chain

Variants of: B1
Conditions: with tod6_yeast TOD6, P34219

effect of a mutation on the interaction	Variant
increasing interaction	T6E

Variants of: B2
Conditions: with stb3_yeast STB3, Q12427

effect of a mutation on the interaction	Variant
increasing interaction	T6E

Variants of: B3
Conditions: with dot6_yeast DOT6, P40059

effect of a mutation on the interaction	Variant
increasing interaction	T6E

Variants of: B4
Conditions: with sch9_yeast SCH9, P11792

effect of a mutation on the interaction	Variant
decreasing interaction	MTLPKASSVSVSSGHVSANSHGFSILSKHPHPNNLVHSHSLSHTNAKSHLPISSTSTKENSTNKEEAESLKKNNPSSWDPSDDIKLRHLKEIKNLGWKEIAHHFPNRTPNACQFRWRRLKSGNLKSNKTAVIDINKLFGVYATGDATPSAGTPSAEEAVKEEAVEDEDITAGSSAIEDSPPDFKPLVKPKYMDRKLITQRSTSTFSDHEPQHTKPRKLFVKPRSFSHSITTNTPNVKTAQQTNLSLYNTTSAKTNKAVNSNDYENIGLVPKIIIRSRRNSFIPSTQIPHSTTKTRKNSHSVISSRRSSFNMMHSRRSSFNSHAPTEPISRRASLVVSPYMSPRRLSTSQSVHYHPQHQYYLNPIASPNCKTDHANDKITHTRTFLDMQKFANKHPWSREDDEVLLNNTKDKQNHLSPLEISIVLPNNRSELEIQQRMDYLKRKGRVSGFHTNEGCKDEEEEDDIDPLHKENGINTPSQQSQNYGMLEAKHDNPKSSELSSMTSANDIRNEQDELPGINSIFKNIF [L6A]

Variants of: B5
Conditions: with sch9_yeast SCH9, P11792

effect of a mutation on the interaction	Variant
decreasing interaction	T5A
